{"source": "patent US20220236279A1", "about": "(published 2022)", "binders": {"B1": {"name": "dynorphin 2-17 (SEQ ID NO: 19) (peptide)", "peptide": "GGFLRRIRPKLKWDNQ"}, "B2": {"name": "adrenorphin, YGGFMRRV (SEQ ID NO: 32; NH2-substituted at C-terminus) (peptide)", "peptide": "YGGFMRRV-NH2"}, "B3": {"name": "dynorphin A (peptide)", "peptide": "YGGFLRRIRPKLKWDNQ"}, "B4": {"name": "BAM22 (peptide)", "peptide": "YGGFMRRVGRPEWWMDYQKRYG"}, "B5": {"name": "Phe1ψ(CH2-NH)-Gly2-Nociceptin-1-13 amide (SEQ ID NO: 13; NH2-substituted at C-terminus) (peptide)", "peptide": "FGGFTGARKSARK-NH2", "modifications": "also: reduced peptide bond ψ(CH2-NH) between Phe1 and Gly2"}, "B6": {"name": "dynorphin 2-13 (SEQ ID NO: 20; NH2-substituted at C-terminus) (peptide)", "peptide": "GGFLRRIRPKLK-NH2"}, "B7": {"name": "LIH383, octapeptide FGGFMRRK (SEQ ID NO: 3; NH2-substituted at C-terminus) (peptide)", "peptide": "H-FGGFMRRK-NH2"}, "B8": {"name": "dynorphin B (peptide)", "peptide": "YGGFLRRQFKVVT"}}, "note": "No end group written: not given here."}
{"target": "human atypical chemokine receptor 3 (ACKR3) (human, UniProt P25106 1-362)", "sequence (P25106 whole entry)": "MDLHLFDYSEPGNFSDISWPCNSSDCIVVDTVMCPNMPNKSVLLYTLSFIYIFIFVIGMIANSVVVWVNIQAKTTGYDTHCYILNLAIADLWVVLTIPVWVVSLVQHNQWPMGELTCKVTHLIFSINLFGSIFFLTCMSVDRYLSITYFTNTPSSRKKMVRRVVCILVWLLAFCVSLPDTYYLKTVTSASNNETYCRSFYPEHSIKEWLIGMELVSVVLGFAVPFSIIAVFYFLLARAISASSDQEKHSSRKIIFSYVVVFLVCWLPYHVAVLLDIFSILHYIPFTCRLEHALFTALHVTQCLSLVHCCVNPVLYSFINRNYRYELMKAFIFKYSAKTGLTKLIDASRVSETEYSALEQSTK", "assay": "binding competition with CXCL12-AF647, flow cytometry", "units": {"IC50": "nM"}}
{"binder": "B1", "IC50": 11100}
{"binder": "B2", "IC50": 49}
{"binder": "B3", "IC50": 82.7}
{"binder": "B4", "IC50": 32.7}
{"binder": "B5", "IC50": "> 10000"}
{"binder": "B6", "IC50": 20900}
{"binder": "B7", "IC50": 4}
{"binder": "B8", "IC50": 465}
